{
  "source": "the DeepSol protein solubility set",
  "data": [
    {"assay": "soluble on expression in E. coli; label from the status in PepcDB or PDB records", "values": [
      {"sequence": "NKNLWATIRGNFTYASSKFSKYEEPDYSATPWRSKIGTKLSQEFGLIAERLFVDEEDVANSPKQQFGEYMAGDIKYKDINHDGIIDEQDRVPIGYPTTPEIIYGFGFSIGYKDFDFNCFFQGSSRSSFFISPADISPFIQPNDPNNELGGKQATNALLQIVADDHWSEANQNMYAFWPRLSDTAISNNNQKSTWWLRDGTFLRMKSAEIGYTLPKRISSKAKLENFRIYVSGTNLFNISKFKTWDTEMGGNGLGYPVQRVFNIGVQLSL", "soluble on expression in E. coli": "not soluble"},
      {"sequence": "MLNVGDSVQIAGCSTKKRLLETSSGCDSFDTLIGGALVNSSIVLIDEYRSRCYGSYLIRSFLAEGLHHGHRCFIADPTEDPKEINLIPSRRTSTDMQNQEIPNSLPAENENSMKIAWRYGNVKQVSSSLGPLSNENQYDFTKHVENPNVDVYAEKVFTLKGIYETLCQIVKENEAHTKSGGRGGPKKNLLRVVLKNIDMEICEDYKFLGRFLCCLRSLARSSYMIVYITANSFRVPKPTWRILESAADTHIQLMPFDENEKKMFKHLGTAHGYFHLKSLPRLMSVGTHTPPILDLIFEASSRKGFQIRVMHLPPAFDEPAPGHQNTPSCQNIDF", "soluble on expression in E. coli": "soluble"},
      {"sequence": "MAHHHHHHMFSRTGFRCAPVVEDVVAAFKVLGLAYNPRAPASSRPGVDDVRRQYLEMARLHHPDLSSGDDNRMKVINTAYELIQSSGILHGAYDAPAGAREGVAGQQGGEAGTATRFARKAGARRRRMPDDFASGDDSSWSMKTSLDWQAIMNSTETLSDEEMKNPANHPFSHSKFFTFEDDLTIYRMICGGATVRQVARSLGKPATFIERRLQNAQFKLRVQYVLRQDKRKSTAASSNGAASSGSMQQTTSTTITEPATRRALRRSPYEDAHVSSTVRKREWEPSYPEWRAPRYRDQMTLEEQGRLDGLLRETPRAAHAAGKSVSSLHSARRSAASKMGRSYENYKRLRPSF", "soluble on expression in E. coli": "not soluble"},
      {"sequence": "MDDVRLHAIYQDITRDYLPPASLNHLMLLSKQTQHKLSFKSAPIPDLQPFFKNFTSKTPGSAKESPCSSTAKISSSISISSQCIFNVVILSFVFTSQNLNLPSHPALHNVSPESLNDRLMTQLECANSPRLACELWVGTDKEPILSPNSVSYRVMQPNEFES", "soluble on expression in E. coli": "soluble"},
      {"sequence": "MGSDKIHHHHHHMALANFIDRAATAASQVLADFHLEDFKAALEKQVVAVAFDDQAASCAEGQATLDLAVRLLARLYPVLAILPLGSAASFQAQALERLAKSINPKVGIRRSGKSATICVVAGVTRPPLRCPTFFMGSDGWAAKLSRTDPVGSGSSLLPYGAGAASCFGAANVFRTIFAAQLTGAELDETIDLSLYSYDKTKAGEAGPIDIPVDLGETHLVGLGAIGHGSLWALARQPGLTGRLHVIDHEAIELSNLQRYVLAGQAEIGMSKAVLAATALRSTAIGVEAHPLTWAEYVARHGDWVFDRVGVALDTAADRLAVQGALPRWIANAWTQEHDLGISRHGFDDGQACLCCMYLPSGKSKDEHHLIAEELGIPEAHEQVKTLLQTNAGVPNDFVVRVATAMAVPFEPLAPFVGQPLRSFYQQAICGGLVFQLSDGSRRVRTVVPMAFQSALAGIMLAAELVKHSAGFPVGPTTSTRVNLLRPLGSRLHDPKAKDSSGRCICSDDDFIAAYRRKYGKSIVQLSDVSAA", "soluble on expression in E. coli": "not soluble"},
      {"sequence": "MYKDYPAAYQVSKGAALQVDTAFYERLRANAQQRTLVEQFEVPIRTGRAWKVKAGQVFRVTTPAGPQVGDFNVWNAHDPRERLWAARTRQLQGAHVSTHDRLWSNLPFLRPLVTITDDSLASYGIDEHGGRLHDLLGTRCDPYVKKMLTGEDFHHHCHSNLTRAVLPHGLTEFDVHDVLNIFQCTGLNHDDMYFMKACPAQKGDYLEFFAEIDLLCALSTCPGGDLSLPMWGPDAQDPLSVCRPLGVEIYNLDAALLEGWQSPERAAYNGLHGLQIAKVDWEKLEHHHHHH", "soluble on expression in E. coli": "not soluble"},
      {"sequence": "MKIEEGKVVIWHAMQPNELEVFQSLAEEYMALCPEVEIVFEQKPNLEDALKAAIPTGQGPDLFIWAHDWIGKFAEAGLLEPIDEYVTEDLLNEFAPMAQDAMQYKGHYYALPFAAETVAIIYNKEMVSEPPKTFDEMKAIMEKYYDPANEKYGIAWPINAYFISAIAQAFGGYYFDDKTEQPGLDKPETIEGFKFFFTEIWPYMAPTGDYNTQQSIFLEGRAPMMVNGPWSINDVKKAGINFGVVPLPPIIKDGKEYWPRPYGGVKLIYFAAGIKNKDAAWKFAKWLTTSEESIKTLALELGYIPVLTKVLDDPEIKNDPVIYGFGQAVQHAYLMPKSPKMSAVWGGVDGAINEILQDPQNADIEGILKKYQQEILNNMQG", "soluble on expression in E. coli": "soluble"},
      {"sequence": "MAASWRLGCDPRLLRYLVGFPGRRSVGLVKGALGWSVSRGANWRWFHSTQWLRGDPIKILMPSLSPTMEEGNIVKWLKKEGEAVSAGDALCEIETDKAVVTLDASDDGILAKIVVEEGSKNIRLGSLIGLIVEEGEDWKHVEIPKDVGPPPPVSKPSEPRPSPEPQISIPVKKEHIPGTLRFRLSPAARNILEKHSLDASQGTATGPRGIFTKEDALKLVQLKQTGKITESRPTPAPTATPTAPSPLQATAGPSYPRPVIPPVSTPGQPNAVGTFTEIPASNIRRVIAKRLTESKSTVPHAYATADCDLGAVLKVRQDLVKDDIKVSVNDFIIKAAAVTLKQMPDVNVSWDGEGPKQLPFIDISVAVATDKGLLTPIIKDAAAKGIQEIADSVKALSKKARDGKLLPEEYQGGSFSISNLGMFGIDEFTAVINPPQACILAVGRFRPVLKLTEDEEGNAKLQQRQLITVTMSSDSRVVDDELATRFLKSFKANLENPIRLA", "soluble on expression in E. coli": "soluble"},
      {"sequence": "MKSKFEASIDNLKEIEMNAYAYELIREIVLPDMLGQDYSSMMYWAGKHLARKFPLESWEEFPAFFEEAGWGTLTNVSAKKQELEFELEGPIISNRLKHQKEPCFQLEAGFIAEQIQLMNDQIAESYEQVKKRADKVVLTVKWDMKDPVMAGDPLEHHHHHH", "soluble on expression in E. coli": "soluble"},
      {"sequence": "MGHHHHHHSHNDGRIMGFVSRSQERRLLKKTMSGTFLLRFSESSEGGITCSWVEHQDDDKVLIYSVQPYTKEVLQSLPLTEIIRHYQLLTEENIPENPLRFLYPRIPRDEAFGCYYQEKVNLQERRKYLKHRLIVVSNRQVDELQQPLELKPEPELESLELELGLVPEPELSLDLEPLLKAGLDLGPELESVLESTLEPVIEPTLCMVS", "soluble on expression in E. coli": "soluble"},
      {"sequence": "MLNKEIKGALIVSCQALADEPLHSSFIMSKMALAAKQGGAKGIRANSVVDIRAIRKEVDLPIIGIIKRDYPDAEVYITATMREVDELMAVQPEIIALDATHSKRPNGETLATFFKRIKEKYPNQEWMADCSTLEEMIEAAELGFDYIGTTLVGYTPQSENQRIEQNDFELLREAKKHFTTPIIAEGMIDTPAKVQRVLELGTYSVVVGSVITRPQKITEKFVEATKIKQNQA", "soluble on expression in E. coli": "not soluble"},
      {"sequence": "MRLYWRMPTTTPALRPQDLTETAFAPYGWMLGKPLPAGDDVLRFSNPATDFWQEHVFDTGAGAGRETEVLWVNYRISQPGFDTLEKHLLTQQAIVPLTGAIVQIVARSAFDGSPDLASLAAFVVPPGQGICMRPGCWHATRISGGEVTCLMLTRRSTTLDLVRHLHGEPARESEIVAIVPHGLDLPARPTAEGPAPHGRLEHHHHHH", "soluble on expression in E. coli": "not soluble"},
      {"sequence": "MIKLSNITKVFHQGTRTIQALNNVSLHVPAGQIYGVIGASGAGKSTLIRCVNLLERPTEGSVLVDGQELTTLSESELTKARRQIGMIFQHFNLLSSRTVFGNVALPLELDNTPKDEVKRRVTELLSLVGLGDKHDSYPSNLSGGQKQRVAIARALASNPKVLLCDEATSALDPATTRSILELLKDINRRLGLTILLITHEMDVVKRICDCVAVISNGELIEQDTVSEVFSHPKTPLAQKFIQSTLHLDIPEDYQERLQAEPFTDCVPMLRLEFTGQSVDAPLLSETARRFNVNNNIISAQMDYAGGVKFGIMLTEMHGTQQDTQAAIAWLQEHHVKVEVLGYV", "soluble on expression in E. coli": "soluble"},
      {"sequence": "MKYAVLIGDGMADYPIEELGSRTILQAARTPAMDSIAARGKTGLAKTVPEGFPPGSDVANMSIFGYDPAIYYSGRAPLEAASMGVALAADDVAFRCNLITIENGKIKDYSAGHISSDEAEILIDTLDSELRTEKVRFYPGISYRHLIVAGNDLGAETECTPPHDITGERKDDYLPRGKDGEFFSGLIEASTVVLELHPVNLKRVQEGKNPANSIWVWGQGYAPKFKTFQELYGKSGAIISAVDLLKGIGIYAGLDVIEVPGATGYLDTNYEGKASAAIEALKTRDLVFVHVEAPDEAGHEGSLEKKMKAIEDFDSRIVSPILKHAEASDETFTILVLPDHPTPISVKTHTRDPIPFAIYRTDAADPDGVEYFDEESVKNGSMGLVKASDLIGMLVKVLEHHHHHH", "soluble on expression in E. coli": "not soluble"},
      {"sequence": "MTENELLTRCGGKCELCGSDVELAIYDLPASDGHENEIMICENCSSQIAAPDTMDMNHWRCLNDSMWSQVPAVQVMSYRMLKRLSGESWAQDLLDMLYLEDDLRAWGDAEAAAASDDTPPTLDSNGAVLNAGDTVVIIKDLNVKGTSFVAKRGTAVRNIALTNNPEHIEGRVNGTRIVILTCFVKKSLEHHHHHH", "soluble on expression in E. coli": "soluble"},
      {"sequence": "MGSDKIHHHHHHMLASDLLVIDFAQKDDVLKLYPEAPLLSSDKAQWDGIQLQYHRHPPHQLSENHSKQHRIIIHDRSPSPPMVEEMIEHRFQKRQFGYGDVTVVPADVLNSAYWNTEYEFITLSFEARTFARHTFDLTTATDIELVPSFSKPDQLIYSLGFALKSELESSGVGSRLYIDSLTAALMTHLLRHYSAQRSISRPQSGLAKCQLQKVIDFINQNLEQDLALAELAAIVQMSPSYFSTLFKHSTGLAPHQYVIQCRVDRAKQLLRQSNLTIAEIAYSLGFTHQSHLSRHFKRLVGVSPKVFIKSQ", "soluble on expression in E. coli": "not soluble"},
      {"sequence": "METPETRFCKESKVVKTSRVFPLDTNNHNTLFGGKLMSYIDDIASISAARHCRRETVTASMDSVDFLKPIGQKDSVCLESYVTWVGTSSMEVFVKVIKEHLMTGERELAATSFLTFVALDSNGKPVPVPRVVPETEEEIMLHNTAVQRANERKNRKRHSQALANALGTDKPWVNVKPKTLEHHHHHH", "soluble on expression in E. coli": "not soluble"},
      {"sequence": "MQAYTQTLIHRLDKLNRQRIERALALMDLQSQRVFHLIPALFQFNHPLIPGYFSADTPFGIHLFEANPIQQQFIDDAQLTLGEPLTPADNPAILGLYTMGSTSSIGQSTSSDLDIWVCVSAQMSCEARDNLSSKCLLITDWAKSQGVEANFFIMNEERFRHNHSEALSGENCGSSQHLLLLDEFYRSAVRLAGKRLLWQIVPPEMEECYDEYVHELCSNGYLNCNEWIDFGKLNRIPAEEYFGANLWQLYKSIDSPYKSVLKAILLEAYSWEYPHTQLLSIDSKRRFFADEPDLYGMDSYYQMLEKVTRYLVRIGDSTRLDLVRRCFYLKTHEKLSREPGVGSMPWRREALRELTSEWQWSADLIAELDNRRHWKVEQVKVVHHALLDALMLSYRNLIQFARRNDITSAISPQDISILARKLYAAFEVLPGKVTLLNPQISPDLHEPDLSFIEVCAGRTNKPGWYLYKQPLQAQRLIGQPYLEHNEYLSKLVAWAFFNGLITESTRLHAVVREAQLDIDKFYQMVSDLRNTFSLRKRRPTMQALANPCEISQLAMFINFEHDPTSELSGKALKVDLKNIDIFSFGAEQKCLVGSVDLVYRNSWQEVRTLHFEGQTAMLDALKTVLGKMHQDALPPESVDVFCYSKNLRGVMRNLVYQLLAECIDLRLKPMEQEKRRRFKALRMGDQMYGLFFERRGVSVQKLENSVDFYRSISTNKLKGSPLLMLDRDQDYPLPAVVDSFASEGLVQFFFEDTEKGFNIYVLDEANRVEVYHQFNGEKDEMIASVNSFYTSMLDDSNKLGAKSINFNLPQYYQIIHPEEGETYVVPYRNDSAVYSKPSQVVNA", "soluble on expression in E. coli": "not soluble"},
      {"sequence": "MSNFISPVYEIKSIPIEKISPNDYNPNSVAPPEMKLLYDSIKSDGYTMPIVCYYDKEEDRYSIVDGFHRYRIMLDYSDIYERESGRLPVSVIDKSLDYRMASTIRHNRARGSHD", "soluble on expression in E. coli": "not soluble"}
    ]}
  ]
}
